Tested on: K4 kissing-loop RNA reporter
Test: apparent KD of K4 kissing-loop reporter; higher = weaker reporter binding
Conditions: Eterna round: R107
Experimental: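 RNA-MaP round R107: designed RNA switches with theophylline, tryptophan, arginine or FMN aptamers are transcribed on-chip within common flanks. They are titrated with a labelled K4 kissing-loop RNA reporter in RNA-MaP buffer (100 mM Tris pH 7.5, 80 mM KCl, 4 mM MgCl2), without ligand or with the indicated ligand. Median apparent KD per design.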

[1] = input ligand: theophylline 20 uM
[2] = input ligand: tryptophan 2.4 mM
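Further: bound reporter read as fluorescence of individual clusters on recovered sequencing chips by microscopy, with normalized cluster intensities fitted with a binding model.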

Sequence	apparent KD of K4 kissing-loop reporter (input ligand: FMN 200 uM)	apparent KD of K4 kissing-loop reporter (input ligand: arginine 13.2 mM)	apparent KD of K4 kissing-loop reporter (input ligand: none)	apparent KD of K4 kissing-loop reporter [1]	apparent KD of K4 kissing-loop reporter [2]
GGGCCUGGGCCCGGAAGGGCCUGGGCCCGUUAGGAUAUGACGUGAUUCAGAAGGGAUGGGUGGAGUGAUGUUCCACCCGAGAGGG [#2 Same State - FMN A Attempt #25 (HarryS)]	85.9 nM	90.5 nM	81.5 nM	73.1 nM	63.3 nM
GGAGUUACCUGGGAUACCAGCCGGAGGCCCAGAGCUCGGAGUGAUGUUCUGGGAUGUUUCGGCCCUUGGCAGCUCUGGGUCUCCG [#2 Exclusion - Theophylline B Attempt #5 (HarryS)]	1050 nM	627 nM	806 nM	433 nM	1410 nM
UGAUACCAGGCGGCCGCCACUCCCGCAGGUCAAAGACCUGCGAAGCUGGUUCUUCAGUGAUGUUGGAGGACCGGGCCUGGUAUCU [FiskerMod 25 - Jieux - Exclusion - Tryptophan B]	253 nM	211 nM	236 nM	232 nM	494 nM
AAUAAGGUCGCCGAUACCAGCGCAGGCAGAGCAAAGCUCUGCCAAGUAGUGAUGUUACUGCGCCCUUGGCAGCGGUGGCACGACC [Omei KL Theo B SS C v3]	196 nM	157 nM	163 nM	123 nM	167 nM
ACGUAGUUCUAGGAUACCAGCCAAGGCCCAGGACAAAAGUCCUGGGUCGCCAGUGAUGUUGGCCCUUGGCAGCCUAGAACUACGA [Omei KL Theo B Exc B v11]	421 nM	358 nM	457 nM	387 nM	444 nM
AGGUUUUACGGAGGAUAUGCACUGAGGAGGAGAAUAUAGUGAUGUUAUAUAAGAGGAAGGAGAAGAGUAGAAGGCCGUGAGGUUU [SSFMNB.M]	136 nM	130 nM	149 nM	204 nM	98.6 nM
AAUGUACAAGUGAUGUUUGUACUUUCCGAAGGAGCGUCUAAUAAGACAGGUAGGUCGCGGAUUAUCAUAAUUAUCAGGUUUUCAA [JR_SSArginiA_Sub015]	98.8 nM	88.8 nM	92.4 nM	89.1 nM	90.9 nM
CAAUGAGUAUAAGAUGAUAUCAUAACAGAAGGAGCGAGUGAUAACUCAGGUAGGUCGCUGAAUUUAUCGAGUGAUGUUCGAUAGA [whbob_SS_Arginine_A_sa117]	202 nM	162 nM	226 nM	193 nM	176 nM
GCUCGUCAUGUCAGCGGUGGUACUGUCGAUACCAGUGCCGUAAGGCGCCCUUGGCAGCGAUGCGCUGGAGUGAUGUUCCAGCGUU [#2 Exclusion - Theophylline A Attempt #32 (HarryS)]	110 nM	92.9 nM	116 nM	120 nM	119 nM
AAAGGAGUGGAAGGAUAUCCUGGUGUGGGUGGUGUUAGUGAUGUUGGUGGUGCAGUGAUGUUGCGCGGAGAAGGUCCGGUAUUGG [BDazzled - #2 - Exc. FMN B]	485 nM	462 nM	437 nM	517 nM	410 nM
AAUUGAGUGACGGCCGCCACUAGAGUGAUUUUUUUGUUUGAGUGAUGUUUUGAUGUUUGAUUUUGUAGGACCGGGUUGAGUGAUG [qqxzmullin]	305 nM	306 nM	357 nM	528 nM	247 nM
AAUAAGGAGUGAUGUUCCAAGUGAUGUUAACGAGGACCGGUACGGCCGCCACUCGAUACGGCCGGAAAAUAAAAUAAAAUAAAAU [Same State - Tryptophan A (Freestyle 1)]	103 nM	119 nM	134 nM	120 nM	124 nM
UGACUGGACUGAAGGAGCGUUGAAGGAGCGUAGUGAGUGAUGUUCACUACAGGUAGGUCGCAGCAGGUAGGUCGCAGUCUAGUCU [ArgBS 25 #DoubleAptamer #SwitchBubble]	149 nM	107 nM	101 nM	83 nM	145 nM
GUCCAACCUGGAGGAUAUCUGCUGUCCAGUGAUGUUGGACACUUUAGUAAAGGCCGGGUAGCCCGCAGAGAAGGCCGGAGUUGCC [Arceer]	310 nM	328 nM	375 nM	464 nM	327 nM
UGAUUUAACUGAAGGAGCGGCAAUAGAGAAGGAAAUAUAGUGAUGUUAUAUAAGAGAGAGAGCCAGGUAGGUCGCAGAGGGAGGA [ExArgB.F]	181 nM	128 nM	137 nM	171 nM	151 nM
UGAUAGGACAGAAGGAGCGGAAGUGAUGUUUCCAAAAGGUAAGGUCGACAAAGUCGACCCUUCCAGGUAGGUCGCUGUCCUAUCU [ArgBX 11 #Palindromic #SwitchBubble #StaticStem]	88.5 nM	102 nM	92.8 nM	89.2 nM	82.4 nM
CGUUUAGUGAUGUUAAGCGUCCACUACGAUACCAGAACUAUAACCUUCCCUUGGCAGCGUUUAUAUUGUAACUCAUGUGUUAAUU [theeternabot_exclusion_KL_Theo_A_11]	520 nM	296 nM	474 nM	503 nM	468 nM
GCCGAAUCGUUGGGCUCAGUGAUGUUGAUCCGAGGACCGGUACGGCCGCCACUCGAAUGGCAGUGACCACACUGGUAACGUUAAA [theeternabot_exclusion_KL_Trp_A_43]	573 nM	490 nM	699 nM	575 nM	261 nM
CGAAGAAAGGUAUGUGGGAUCUGCGCGUAACGAGGACCGGUACGGCCGCCACUCGACGUCGCAUACGGCCCAGUGAUGUUGGGUG [theeternabot_sameState_KL_Trp_A_14]	74 nM	55.9 nM	75.4 nM	74.9 nM	53.4 nM
UAGAGCAUCGCAGGAUAUCCUGCUUAACGUUGGAUUCCAGUGAUGUUGGAAAGCCGGCCUAGGGUAGGAGAAGGGCGGAUUUGAA [Edvean]	171 nM	151 nM	215 nM	322 nM	149 nM

Reference: the supplement of paper PMC9170038
